Assay: soluble on expression in E. coli; label from the status in PepcDB or PDB records

Sequence | soluble on expression in E. coli
MSLEAKKSKAIVFSGVNQIELREVTLKPVSSTDVLVETWWSSISTGTEKMALNGLIPSPPFIFPFIPGYETVGRIVEAGDHVNQGLIGKFAYVAGSFGYEDVNAAFGGASQFIVCPVESLTVLDGIANPQCGIALPLGATALHIVDLAEVKNRKVLVLGQGAVGILAAELAKRFGASLVAVTEPHQRRLDISTSDIKVNPEKQDVSVALAGHEFDVLIDSTGIMSAIETGLRFLKFHGKVIFGGYYQRMNIDYSQAFNKELSFIAARQWAKGDLHRVRELIAAGKINAEKIFTHQCTVDDNLMEAYMQAFSDSDCLKMIIHWKHGNEAGEHFPTCNTANEGHHHHHH | soluble
MSLSDARLVADLSDVFTDIGVEHAVSGAQIEEFVARMPEVGHSLVAVHRRLRAATEELEGYRSRATAETELPPARPMPFEEVRDFFYDRNNYIHDLDMAAERMFTESGMRTGGLDIQLAELMRDRFGISVVIDDNLPDTAKRRYHPDTKVLRVAHWLMPGQRAFQIATQLALVGQSDLISSIVATDDQLSTEARGVARIGLANYFAGAFLLPYREFHRAAEQLRYDIDLLGRRFGVGFETVCHRLSTLQRPRQRGIPFIFVRTDKAGNISKRQSATAFHFSRVGGSCPLWVVHDAFAQPERIVRQVAQMPDGRSYFWVAKTTAADGLGYLGPHKNFAVGLGCDLAHAHKLVYSTGVVLDDPSTEVPIGAGCKICNRTSCAQRAFPYLGGRVAVDENAGSSLPYSSTEQSVEGHHHHHH | soluble
MINLTSIASSLARVALSDSTKPTIDRALNVVSHIAGKVALQVNSSLLEQKGRLNERQQKGLAVILDALRGKEPVTNVETHEGGGRFNLARAAFDVASVVWERDKSMHNVMSFLGVSDSQGKMLFSLGKKLADAMAKPEPGYGKHNSEANYAFFSSNLKLNKLMSDIADQLINEIRQSNTDRVRRPTPGPSWRPESAQQQARPQTPPRTRPQANSTPPPPKAKPNAGAKRPSTQRPHNTPAADASSKVGDSGPAKPPVKPLYEHLGLSDMTADLSAVKTAYKKAALKNHPDKNAGNVAEATERFKVISNAFKILSDPELRKKYDNGLINEKGDEVQV | not soluble
MEKIIVRGGKQLNGSVKMEGAKNAVLPVIAATLLASKGTSVLKNVPNLSDVFTINEVLKYLNADVSFVNDEVTVDATGEITSDAPFEYVRKMRASIVVMGPLLARTGSARVALPGGCAIGSRPVDLHLKGFEAMGAVVKIENGYIEATAEKLVGAKVYLDFPSVGATQNIMMAATLAEGTTVIENVAREPEIVDLANFLNQMGARVIGAGTEVIRIEGVKELTATEHSIIPDRIEAGTFMIAAAITGGNVLIEDAVPEHISSLIAKLEEMGVQIIEEENGIRVIGPDKLKAVDVKTMPHPGFPTDMQSQMMVIQMLSEGTSIMTETVFENRFMHVEEMRRMNADMKIEGHSVIISGPAKLQGAEVAATDLRAAAALILAGLVADGYTQVTELKYLDRGYNNFHGKLQALGADVERVDDSKVDVTNLASLF | not soluble
VPTDCTENWVVVYLSGPLFFMSSERLKQTLLQLETKSGVVFSMRGVPSIDSTALDILEEFCLAAEGRGQQVQFAALQPEVEKMIRTIQGNQEKEYHFSVAEFLQTVHVA | not soluble
MAHHHHHHMRGEHELVIPGEQRRDWCSTDACENRLCRKKFSLLVSKQHCQWCGRIFCDNCAPCTATYGGRRLRRCNSCKFPAVFRSLRNLRTGKRDGSVARLIMSFLDSRSINALMHSCYTSLSEFNVGDYVYYESITDRFPTFFEGAMIGKGGFGSVYKCEDRSYPCRRRVALKVITKASVVTYRSWKKIVTELEIMQDVDHHNVAKLLEVLQTPHHLVIVMEAGDGGSLMQAWRLAKEYKYDVEVLVANVVLQVAEGLDYLYHKKGIVHRDIKLENIVLSHDFKRVMIIDFGLAEYVKQCETQLFVPCGTAGYTSPENIRAVVERRRVYEALGETMHLADMYSLGVVAYVLLCGHMPVATRCFSSLYQNMLKGIRCVGPHWANVSDDAKSLVESLVKTNSFERATVAVIREHPFIQAKAPLIVEIVQRHMHKQTETERREVKEWVYVEPLSDHWDMIEVETVSDEENRGLALRKGSSTFGRVGFMNRLKSVVWD | not soluble
MGSSHHHHHHSSGLVPRGSHMKLQFNLKAYFKTSADPTPAKDAIAALFEEANSTLLTRGAPEGQGAKVTEWKLGEDRIELTLQSGRYVRVHDAIFRLRKQLAEALGKKYKIGIRGIEVESFIIKVPADHELRMLKVPYIKSMENIEGGIQLELEVGEAEMKNRVPDRILTLLEEKIEAAQYGAKAEHWNLLWQREPMEHPFKEDPTQAMMKEGWLKRGSSRGQWIHGPQSARIFRTFEKIVLEELLEPLGYREMIFPKLVTWEVWMKSGHAKGVYPEIYYVCPPQTRDPDYWEEVADYYKVTHEVPTKLIKEKIAEPIGGMCYAQCPPFWMYVAGETLPNEEIPVKVFDRSGTSHRYESGGIHGIERVDEFHRIEIVWIGTKEEVLKCAEELHDRYMHIFNDILDIEWRKARVTPWFMAQEGLLGLAEENTVGTTDYEACLPYRGPDGEWLEFQNVSINGDKYPKGFNVKLQSGDELWSGCSGVGLERWAAVFLAQKGLDPANWPEEFRNRVGEMPKGIRFL | soluble
ATATAYVRSCDGASPPTPPGCGLKLVVDLTLDDSILTGSVLETEVMVTHALHESLFPRDAASDAAGTAATSLQVSLPPITVAMRRGAVQMRYGLTYLRTFPAALRDSVRVLKTAMSCDDGVTRCPSYMSMTGTLVSAPLGLCCLCTSVECALTSDLCNASMRAHFCFRTGAAGITCVQSEGITYHGWAVGSSSPYYMMHLSASGRGIAPTTLQLTTDAPEVQKGASALQILRASGVLPGESNPTVDISGRVLFVPSAEHSSASRSISTGPVRDDDPAEWLLLPAPLVSVSGNDCDKVGISPDYFYSLSSTKQCNAQKGTCVRHQLADYRAADLEQIAQGVGGRYIAASLGTFTRQAMREQEFLLDAVERTGGAMLRWTVNADGLVFQPLPVHGVLDAIKFDSSTGILYVTVRNNNTYGGLYYVAVGQCRGARASNCDSDGVTHECGRTALVAGANTSSLLQFSMVSDLPEEVGSTASCTVVFRDAAAALLASANISWTVEHTTTTPAPNAPKAEQCRRCAFRDLRCLFSTV | not soluble
MGSDKIHHHHHHMLSIERQCQCMQLLIETFTVPIEIRALKTANIYRLETDDSAFLIDSGMSDNSIKSIEQNLKKIDFVFITHLHIDHLGGVLYLHEKYGIPAYMNHLDLDLIMNANEDRDGYIKRHSEIFRVNGVPPSMVEEIITMHPVIRYFDYYSKLDFVQDYRKINASGIKFVEVPGHSPGSTAVYIEDSRDLFAGDHILDRITPNIAVYGDEDDLGNYLESLEKVRAMKVDRIFPGHGNVITEPKIRIDDIEKHHHDRMRAIIAALKSPKTAYEVARDITWSKGRKMDTMNFMERNFAILETVSHLKHMDRKGMVRRIEENGIIKYSYIQ | not soluble
MGSDKIHHHHHHMISQNRLRVLARELGVRQGYAEKNYVNSWILWGIFTSDFGENLMFKGGTALSKLYFPQSWRFSEDLDFGVEGQYNGSEDDLRDVLDTVTERSGIEFTISEHHESRQQHYPTHYVDMSIQYRAVLDHPNTTSLDVMVDEYVAFDSVHHTHSYEDIPEFELQAYSVEEIFAEKLRAIFQRGAARDYYDLYQLLETESVEIEFDVVLPAFEAKCDHDDLDVDLTTGLPGDQREDIQRQWETSLPDLTGDPPLFDTVWKRLDEAVIDKGTE | not soluble
MSLQFYSVQTNTLKLATTTFNAEGSMLLSTHWTLNLGFSYNPWNFSDTRKIKHFLIEPGARYWFWQTYAGSFISMYAMGARYNVAWDGLLGGDYRYQGWGYGAGMTYGRSWLLSKRWNMEVEAGLGLLVAPYTKYRCEHCGDKVKSGTYFLPTPKLAFNLVYLFEGHHHHHH | not soluble
MGSDKIHHHHHHMVDVKRNIFLILDDRELTSEEVRSLVGTRRYSEISLKRRSLLEHLRAALPAWAQTRLVHIKDNNDVVALRNVLESCGEQSPALVIAGRAGFLQPERLTQLIERLPYAEEDFTDRLYRPLLVYLKSVHDLHSCWQQFEAEPLHLWPKAWQDCQRLESLEPLDLARIRDFLTFTGGATATRHFNEVLIDNYYYTKRSSDKQKMLAEYSFYGLAPESMRPWLIQPFEFREEGGGASYKMLRYFLADAALQWVHGAFDRDTFMAFIERLLFFIAERPRKACAREESAAVARDMFVTKVSARIEAFLAMEEGRRINALAASASPMLDVQAMLKRYLALYQRHERAFAFDYMVVGHGDPCFSNVLYDQQRYLLKLIDPKGAATEADLWTNPLYDLCKISHSVLGDYDFINNGLYRVGFTDANALKLAFSHRNHDDLKPIFSSLVGKMGMDYRIMRLGEASLFLSMLPLHIDYPNKILAFMLKAHEILREVEGEARV | not soluble
MAGLIPQSFIDDLLNRTDIVEVVSSRIQLKKTGKNYSACCPFHKEKTPSFTVSPDKQFYYCFGCGAGGNALGFVMDHDQLEFPQAVEELAKRAGMDVPREERGGRGHTPRQPTDSPLYPLLSAAAEFYKQALKSHPARKAAVNYLKGRGLTGEIARDFGLGFAPPGWDNLLKHLGGDNLQLKAMLDAGLLVENSDTGKRYDRFRDRVMFPIRDSRGRIIAFGGRVLGDDKPKYLNSPETPVFHKGQELYGLYEARQKNRDLDEIMVVEGYMDVIALAQQGIRNAVATLGTATSEEHIKRLFRLVPSILFCFDGDQAGRKAAWRALESVLPNLQDGKRVRFLFLPEGEDPDSLVRAEGEDAFRARITQQAQPLAEYFFQQLMLEADPATLEGKAHLATLAAPLLEKIPGNNLRLLMRQRLSEITGLSGENIGQLAHHSPPPSSMDHGASGVLDGDDYFAASAYYENEPSHAPFDAAPGYVEAQPRKSWNKDKKPWDGKKWDGKKKWDKGGRGDFKAPQRTPVSVESTTLNALRTLLHHPQLALKVDDAGTLAREQDTYAQLLVSLLEALQKNPRQSSMQLIARWHGTPQGRLLQALGEKEWLIVQENLEKQFFDTITKLSESQRFGEREERLRSVMQKSYSELTDEEKALLREHYSVAASSP | not soluble
MSLSTMLVAEDLSAVGGISLSSALPVLTAMQYDVAALPTSLLSTHTSGYGTPAVVDLSTWLPQVFAHWTRAQLHFDQALIGYVGSVALCQQITTYLEQQTLSLLVVDPVLGDLGQLYQGFDQDYVAAMRQLIQQADVILPNTTEAALLTGAPYQVTPDLEVILPALQAQLKTGAHAVITDVQRADQIGCAWLDEAGHVQYCGARRLPGHYNGTGDTLAAVIAGLLGRGYPLAPTLARANQWLNMAVAETIAQNRTDDRQGVALGDLLQAILALNEGHHHHHH | soluble
MSLKQKSVPMRHGTIYLYGLHSVHAALKNPKRVFEHLYITPNALKRLNIPESDLPCPITLCLPKQLDSFVGNDAVHQGIVLETEPLKPCQLSELTNTDLVIVMDQITDPHNVGAIMRSAVAFKAEALITTYRHSPQESGVLAKAASGALEMIHYITVQNLAETLQELHKAGFISFGLDSEGNHPLETTLTGEKIALVLGAEGKGLRKKTRENVCALTRLDMPGNIKSLNVSNAATIALYAAHKYLRGEGHHHHHH | soluble
MSLAILIVECMQEISSFNPVPSDYELFHIEEGEDLFQHRGRNTAIGGALSVLEATPGVTLIPTVAARADSAGILSAEGWARLSAQILDRVRAGVGGADAIYVSLHGAMGAVGEPDPEGWLLAQIRALAGPDRPIIISLDLHGILTERMIAQVDGIAVYHTYPHVDFADTGARAARLLLDRLTARRPASIVRAVIPALVRGDELITATGCYGDLIRECRRLEADGMVLAAGLMIGNPFTDAPELCSQVVLTTDDPLRGRAEAERLAAAFWALRHRMQGRLIGLSDAVAEARTLTGPVVFTDAADATSSGASGDSNAILRGLLAADYPGRVLAQIVDPQAAEAAHRAGVGAEIPVTLGGRMDPARFTPLEVTARVRLLSDGLTRLETMKTPLNAGRCAVLEFGTVTVVAMSLPAMLFDRAIYYANGLDPADFDLIVVKSPHTEHHMYDAWVTRNFNIDTPGSTSADLASLGHRICARPMFPLDPLTDFTPRATAHLRADRSEGHHHHHH | soluble

From the DeepSol protein solubility set
